Patent US20160244497A1 (Amgen, published 2016)

The binders below were run against beta-klotho (assay: cell-based or functional assay).

| EC50, ELK-luciferase assay [nM] | Binder |
| --- | --- |
| 62 | dually PEGylated FGF21 mutant R77C, R175C (ligand, 20 kDa methoxy-PEG-maleimide on Cys 77 and on Cys 175) MHPIPDSSPLLQFGGQVRQRYLYTDDAQQTEAHLEIREDGTVGGAADQSPESLLQLKALKPGVIQILGVKTSRFLCQCPDGALYGSLHFDPEACSFRELLLEDGYNVYQSEAHGLPLHLPGNKSPHRDPAPRGPARFLPLPGLPPAPPEPPGILAPQPPDVGSSDPLSMVGPSQGCSPSYAS |
| 30 | dually PEGylated FGF21 mutant R77C, H125C (ligand, 20 kDa methoxy-PEG-maleimide on Cys 77 and on Cys 125) MHPIPDSSPLLQFGGQVRQRYLYTDDAQQTEAHLEIREDGTVGGAADQSPESLLQLKALKPGVIQILGVKTSRFLCQCPDGALYGSLHFDPEACSFRELLLEDGYNVYQSEAHGLPLHLPGNKSPCRDPAPRGPARFLPLPGLPPAPPEPPGILAPQPPDVGSSDPLSMVGPSQGRSPSYAS |
| 34 | dually PEGylated FGF21 mutant R77C, G120C (ligand, 20 kDa methoxy-PEG-maleimide on Cys 77 and on Cys 120) MHPIPDSSPLLQFGGQVRQRYLYTDDAQQTEAHLEIREDGTVGGAADQSPESLLQLKALKPGVIQILGVKTSRFLCQCPDGALYGSLHFDPEACSFRELLLEDGYNVYQSEAHGLPLHLPCNKSPHRDPAPRGPARFLPLPGLPPAPPEPPGILAPQPPDVGSSDPLSMVGPSQGRSPSYAS |
| 164 | dually PEGylated FGF21 mutant K69C, H125C (ligand, 20 kDa methoxy-PEG-maleimide on Cys 69 and on Cys 125) MHPIPDSSPLLQFGGQVRQRYLYTDDAQQTEAHLEIREDGTVGGAADQSPESLLQLKALKPGVIQILGVCTSRFLCQRPDGALYGSLHFDPEACSFRELLLEDGYNVYQSEAHGLPLHLPGNKSPCRDPAPRGPARFLPLPGLPPAPPEPPGILAPQPPDVGSSDPLSMVGPSQGRSPSYAS |
| 118 | dually PEGylated FGF21 mutant G120C, R175C (ligand, 20 kDa methoxy-PEG-maleimide on Cys 120 and on Cys 175) MHPIPDSSPLLQFGGQVRQRYLYTDDAQQTEAHLEIREDGTVGGAADQSPESLLQLKALKPGVIQILGVKTSRFLCQRPDGALYGSLHFDPEACSFRELLLEDGYNVYQSEAHGLPLHLPCNKSPHRDPAPRGPARFLPLPGLPPAPPEPPGILAPQPPDVGSSDPLSMVGPSQGCSPSYAS |
| 26 | dually PEGylated FGF21 mutant R77C, E91C (ligand, 20 kDa methoxy-PEG-maleimide on Cys 77 and on Cys 91) MHPIPDSSPLLQFGGQVRQRYLYTDDAQQTEAHLEIREDGTVGGAADQSPESLLQLKALKPGVIQILGVKTSRFLCQCPDGALYGSLHFDPCACSFRELLLEDGYNVYQSEAHGLPLHLPGNKSPHRDPAPRGPARFLPLPGLPPAPPEPPGILAPQPPDVGSSDPLSMVGPSQGRSPSYAS |
| 200 | dually PEGylated FGF21 mutant H125C, R175C (ligand, 20 kDa methoxy-PEG-maleimide on Cys 125 and on Cys 175) MHPIPDSSPLLQFGGQVRQRYLYTDDAQQTEAHLEIREDGTVGGAADQSPESLLQLKALKPGVIQILGVKTSRFLCQRPDGALYGSLHFDPEACSFRELLLEDGYNVYQSEAHGLPLHLPGNKSPCRDPAPRGPARFLPLPGLPPAPPEPPGILAPQPPDVGSSDPLSMVGPSQGCSPSYAS |
| 69 | dually PEGylated FGF21 mutant K69C, E91C (ligand, 20 kDa methoxy-PEG-maleimide on Cys 69 and on Cys 91) MHPIPDSSPLLQFGGQVRQRYLYTDDAQQTEAHLEIREDGTVGGAADQSPESLLQLKALKPGVIQILGVCTSRFLCQRPDGALYGSLHFDPCACSFRELLLEDGYNVYQSEAHGLPLHLPGNKSPHRDPAPRGPARFLPLPGLPPAPPEPPGILAPQPPDVGSSDPLSMVGPSQGRSPSYAS |
| 180 | dually PEGylated FGF21 mutant K69C, R77C (ligand, 20 kDa methoxy-PEG-maleimide on Cys 69 and on Cys 77) MHPIPDSSPLLQFGGQVRQRYLYTDDAQQTEAHLEIREDGTVGGAADQSPESLLQLKALKPGVIQILGVCTSRFLCQCPDGALYGSLHFDPEACSFRELLLEDGYNVYQSEAHGLPLHLPGNKSPHRDPAPRGPARFLPLPGLPPAPPEPPGILAPQPPDVGSSDPLSMVGPSQGRSPSYAS |
| 318 | dually PEGylated FGF21 mutant K69C, R175C (ligand, 20 kDa methoxy-PEG-maleimide on Cys 69 and on Cys 175) MHPIPDSSPLLQFGGQVRQRYLYTDDAQQTEAHLEIREDGTVGGAADQSPESLLQLKALKPGVIQILGVCTSRFLCQRPDGALYGSLHFDPEACSFRELLLEDGYNVYQSEAHGLPLHLPGNKSPHRDPAPRGPARFLPLPGLPPAPPEPPGILAPQPPDVGSSDPLSMVGPSQGCSPSYAS |
| 23 | dually PEGylated FGF21 mutant G120C, H125C (ligand, 20 kDa methoxy-PEG-maleimide on Cys 120 and on Cys 125) MHPIPDSSPLLQFGGQVRQRYLYTDDAQQTEAHLEIREDGTVGGAADQSPESLLQLKALKPGVIQILGVKTSRFLCQRPDGALYGSLHFDPEACSFRELLLEDGYNVYQSEAHGLPLHLPCNKSPCRDPAPRGPARFLPLPGLPPAPPEPPGILAPQPPDVGSSDPLSMVGPSQGRSPSYAS |
| 119 | dually PEGylated FGF21 mutant K69C, G120C (ligand, 20 kDa methoxy-PEG-maleimide on Cys 69 and on Cys 120) MHPIPDSSPLLQFGGQVRQRYLYTDDAQQTEAHLEIREDGTVGGAADQSPESLLQLKALKPGVIQILGVCTSRFLCQRPDGALYGSLHFDPEACSFRELLLEDGYNVYQSEAHGLPLHLPCNKSPHRDPAPRGPARFLPLPGLPPAPPEPPGILAPQPPDVGSSDPLSMVGPSQGRSPSYAS |

More lines, now with the values behind:

| Binder | EC50, ELK-luciferase assay [nM] |
| --- | --- |
| dually PEGylated FGF21 mutant E37C, G170C (ligand, 20 kDa methoxy-PEG-maleimide on Cys 37 and on Cys 170) MHPIPDSSPLLQFGGQVRQRYLYTDDAQQTEAHLEIRCDGTVGGAADQSPESLLQLKALKPGVIQILGVKTSRFLCQRPDGALYGSLHFDPEACSFRELLLEDGYNVYQSEAHGLPLHLPGNKSPHRDPAPRGPARFLPLPGLPPAPPEPPGILAPQPPDVGSSDPLSMVCPSQGRSPSYAS | 163 |
| dually PEGylated FGF21 mutant E37C, E91C (ligand, 20 kDa methoxy-PEG-maleimide on Cys 37 and on Cys 91) MHPIPDSSPLLQFGGQVRQRYLYTDDAQQTEAHLEIRCDGTVGGAADQSPESLLQLKALKPGVIQILGVKTSRFLCQRPDGALYGSLHFDPCACSFRELLLEDGYNVYQSEAHGLPLHLPGNKSPHRDPAPRGPARFLPLPGLPPAPPEPPGILAPQPPDVGSSDPLSMVGPSQGRSPSYAS | 36 |
| dually PEGylated FGF21 mutant E37C, G120C (ligand, 20 kDa methoxy-PEG-maleimide on Cys 37 and on Cys 120) MHPIPDSSPLLQFGGQVRQRYLYTDDAQQTEAHLEIRCDGTVGGAADQSPESLLQLKALKPGVIQILGVKTSRFLCQRPDGALYGSLHFDPEACSFRELLLEDGYNVYQSEAHGLPLHLPCNKSPHRDPAPRGPARFLPLPGLPPAPPEPPGILAPQPPDVGSSDPLSMVGPSQGRSPSYAS | 55 |
| dually PEGylated FGF21 mutant E91C, G120C (ligand, 20 kDa methoxy-PEG-maleimide on Cys 91 and on Cys 120) MHPIPDSSPLLQFGGQVRQRYLYTDDAQQTEAHLEIREDGTVGGAADQSPESLLQLKALKPGVIQILGVKTSRFLCQRPDGALYGSLHFDPCACSFRELLLEDGYNVYQSEAHGLPLHLPCNKSPHRDPAPRGPARFLPLPGLPPAPPEPPGILAPQPPDVGSSDPLSMVGPSQGRSPSYAS | 54 |
| dually PEGylated FGF21 mutant E37C, R77C (ligand, 20 kDa methoxy-PEG-maleimide on Cys 37 and on Cys 77) MHPIPDSSPLLQFGGQVRQRYLYTDDAQQTEAHLEIRCDGTVGGAADQSPESLLQLKALKPGVIQILGVKTSRFLCQCPDGALYGSLHFDPEACSFRELLLEDGYNVYQSEAHGLPLHLPGNKSPHRDPAPRGPARFLPLPGLPPAPPEPPGILAPQPPDVGSSDPLSMVGPSQGRSPSYAS | 21 |
| dually PEGylated FGF21 mutant E37C, K69C (ligand, 20 kDa methoxy-PEG-maleimide on Cys 37 and on Cys 69) MHPIPDSSPLLQFGGQVRQRYLYTDDAQQTEAHLEIRCDGTVGGAADQSPESLLQLKALKPGVIQILGVCTSRFLCQRPDGALYGSLHFDPEACSFRELLLEDGYNVYQSEAHGLPLHLPGNKSPHRDPAPRGPARFLPLPGLPPAPPEPPGILAPQPPDVGSSDPLSMVGPSQGRSPSYAS | 67 |
| dually PEGylated FGF21 mutant E37C, H125C (ligand, 20 kDa methoxy-PEG-maleimide on Cys 37 and on Cys 125) MHPIPDSSPLLQFGGQVRQRYLYTDDAQQTEAHLEIRCDGTVGGAADQSPESLLQLKALKPGVIQILGVKTSRFLCQRPDGALYGSLHFDPEACSFRELLLEDGYNVYQSEAHGLPLHLPGNKSPCRDPAPRGPARFLPLPGLPPAPPEPPGILAPQPPDVGSSDPLSMVGPSQGRSPSYAS | 64 |
| dually PEGylated FGF21 mutant E91C, R175C (ligand, 20 kDa methoxy-PEG-maleimide on Cys 91 and on Cys 175) MHPIPDSSPLLQFGGQVRQRYLYTDDAQQTEAHLEIREDGTVGGAADQSPESLLQLKALKPGVIQILGVKTSRFLCQRPDGALYGSLHFDPCACSFRELLLEDGYNVYQSEAHGLPLHLPGNKSPHRDPAPRGPARFLPLPGLPPAPPEPPGILAPQPPDVGSSDPLSMVGPSQGCSPSYAS | 46 |
| dually PEGylated FGF21 mutant E91C, H125C (ligand, 20 kDa methoxy-PEG-maleimide on Cys 91 and on Cys 125) MHPIPDSSPLLQFGGQVRQRYLYTDDAQQTEAHLEIREDGTVGGAADQSPESLLQLKALKPGVIQILGVKTSRFLCQRPDGALYGSLHFDPCACSFRELLLEDGYNVYQSEAHGLPLHLPGNKSPCRDPAPRGPARFLPLPGLPPAPPEPPGILAPQPPDVGSSDPLSMVGPSQGRSPSYAS | 32 |
| dually PEGylated FGF21 mutant E37C, R175C (ligand, 20 kDa methoxy-PEG-maleimide on Cys 37 and on Cys 175) MHPIPDSSPLLQFGGQVRQRYLYTDDAQQTEAHLEIRCDGTVGGAADQSPESLLQLKALKPGVIQILGVKTSRFLCQRPDGALYGSLHFDPEACSFRELLLEDGYNVYQSEAHGLPLHLPGNKSPHRDPAPRGPARFLPLPGLPPAPPEPPGILAPQPPDVGSSDPLSMVGPSQGCSPSYAS | 50 |

Target: beta-klotho
Test: cell-based or functional assay
Remark: another data set of the same source

| EC50, ELK-luciferase assay [nM] | Binder |
| --- | --- |
| 4.5 | PEGylated FGF21 mutant H125C (ligand, 20 kDa methoxy-PEG-maleimide on Cys 125) MHPIPDSSPLLQFGGQVRQRYLYTDDAQQTEAHLEIREDGTVGGAADQSPESLLQLKALKPGVIQILGVKTSRFLCQRPDGALYGSLHFDPEACSFRELLLEDGYNVYQSEAHGLPLHLPGNKSPCRDPAPRGPARFLPLPGLPPAPPEPPGILAPQPPDVGSSDPLSMVGPSQGRSPSYAS |
| 6 | PEGylated FGF21 mutant G120C (ligand, 20 kDa methoxy-PEG-maleimide on Cys 120) MHPIPDSSPLLQFGGQVRQRYLYTDDAQQTEAHLEIREDGTVGGAADQSPESLLQLKALKPGVIQILGVKTSRFLCQRPDGALYGSLHFDPEACSFRELLLEDGYNVYQSEAHGLPLHLPCNKSPHRDPAPRGPARFLPLPGLPPAPPEPPGILAPQPPDVGSSDPLSMVGPSQGRSPSYAS |
| 6.9 | PEGylated FGF21 mutant E37C (ligand, 20 kDa methoxy-PEG-maleimide on Cys 37) MHPIPDSSPLLQFGGQVRQRYLYTDDAQQTEAHLEIRCDGTVGGAADQSPESLLQLKALKPGVIQILGVKTSRFLCQRPDGALYGSLHFDPEACSFRELLLEDGYNVYQSEAHGLPLHLPGNKSPHRDPAPRGPARFLPLPGLPPAPPEPPGILAPQPPDVGSSDPLSMVGPSQGRSPSYAS |
